Target: PaNOMT9 (Phellodendron amurense)
Test: crystal structure

stoichiometry N: 2
Substance: PaNOMT9 (enzyme)

Reference: PMC11606445
